{
  "source": "paper PMC3021122",
  "target": "Shigella flexneri Spa15 (residues 1-133), N-terminal His tag, unlabelled (Shigella flexneri) (UniProt P35530)",
  "test": "multi-angle laser light scattering; co-purified Spa15:IpgB1 complex; data not shown",
  "data": [
    {"substance": "Shigella flexneri IpgB1 (residues 1-208) (natural protein)", "values": [
      {"measurement": "stoichiometry N (Spa15 per IpgB1)", "result": 2}
    ]}
  ]
}
